From patent US20170362324A1 (Biogen, published 2017)
Where two headings read alike, the source gives them in different places.

Tests used:
[1] = target: T1, human αvβ5 expressed on BaF3 cells (stably transfected with human αv and β5 subunits) (human, UniProt P06756 31-1048; P18084 24-799); experiment: cell-based or functional assay
[2] = target: T2, human soluble αvβ5 protein (extracellular domains of human αv and β5 integrin subunits) (human, UniProt P06756 31-992; P18084 24-719); experiment: ELISA, inhibition of soluble αvβ5 binding to coated human plasma vitronectin
T2 construct: also called biotin-αvβ5; hsαvβ5
T2 sequence (P06756 31-992 limits assumed, chain 1 of 2): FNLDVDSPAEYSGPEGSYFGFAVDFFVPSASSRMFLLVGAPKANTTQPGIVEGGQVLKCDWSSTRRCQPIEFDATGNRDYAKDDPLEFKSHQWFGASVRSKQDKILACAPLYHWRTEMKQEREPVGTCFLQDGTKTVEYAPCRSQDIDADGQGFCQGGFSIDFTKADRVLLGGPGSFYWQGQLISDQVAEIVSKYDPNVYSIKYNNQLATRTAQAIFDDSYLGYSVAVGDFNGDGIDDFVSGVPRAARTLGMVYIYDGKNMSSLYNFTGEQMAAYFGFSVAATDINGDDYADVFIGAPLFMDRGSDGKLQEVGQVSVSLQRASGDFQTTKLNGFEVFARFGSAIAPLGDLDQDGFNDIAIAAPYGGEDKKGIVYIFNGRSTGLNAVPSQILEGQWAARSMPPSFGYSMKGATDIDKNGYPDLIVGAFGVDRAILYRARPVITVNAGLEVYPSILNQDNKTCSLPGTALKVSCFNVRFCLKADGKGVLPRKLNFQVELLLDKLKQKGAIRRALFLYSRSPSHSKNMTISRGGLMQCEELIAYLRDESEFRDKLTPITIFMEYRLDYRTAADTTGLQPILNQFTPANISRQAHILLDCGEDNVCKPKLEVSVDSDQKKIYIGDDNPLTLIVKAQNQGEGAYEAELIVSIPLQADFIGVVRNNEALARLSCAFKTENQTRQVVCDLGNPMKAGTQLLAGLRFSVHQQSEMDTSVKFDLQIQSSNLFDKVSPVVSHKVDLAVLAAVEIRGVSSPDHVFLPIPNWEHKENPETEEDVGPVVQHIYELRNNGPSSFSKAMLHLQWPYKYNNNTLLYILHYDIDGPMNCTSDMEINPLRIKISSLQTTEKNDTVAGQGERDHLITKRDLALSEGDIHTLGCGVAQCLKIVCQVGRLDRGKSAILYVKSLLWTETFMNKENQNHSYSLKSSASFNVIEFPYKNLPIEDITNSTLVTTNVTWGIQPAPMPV
T2 sequence (P18084 24-719 limits assumed, chain 2 of 2): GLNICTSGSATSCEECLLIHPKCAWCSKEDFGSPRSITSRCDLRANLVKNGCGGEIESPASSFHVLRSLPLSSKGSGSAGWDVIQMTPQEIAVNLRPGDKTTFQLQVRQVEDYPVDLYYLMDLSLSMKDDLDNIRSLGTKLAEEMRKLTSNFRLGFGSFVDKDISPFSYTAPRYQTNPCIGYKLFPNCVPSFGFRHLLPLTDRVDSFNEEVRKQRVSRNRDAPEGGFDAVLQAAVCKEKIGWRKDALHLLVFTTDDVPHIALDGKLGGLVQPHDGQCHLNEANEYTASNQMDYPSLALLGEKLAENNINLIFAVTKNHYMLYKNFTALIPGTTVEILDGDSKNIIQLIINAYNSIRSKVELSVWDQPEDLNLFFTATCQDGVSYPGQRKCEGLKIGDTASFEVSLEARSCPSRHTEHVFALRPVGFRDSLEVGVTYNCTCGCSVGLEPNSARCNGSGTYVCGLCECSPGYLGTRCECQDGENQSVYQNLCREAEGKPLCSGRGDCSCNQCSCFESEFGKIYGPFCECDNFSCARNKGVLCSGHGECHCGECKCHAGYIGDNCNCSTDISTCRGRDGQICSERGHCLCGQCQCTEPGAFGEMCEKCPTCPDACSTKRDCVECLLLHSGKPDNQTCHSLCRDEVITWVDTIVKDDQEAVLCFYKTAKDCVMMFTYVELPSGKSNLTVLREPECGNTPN
Protocol: Vitronectin Inhibition ELISA: 96-well microtiter plates were coated with 5 μg/ml purified human plasma vitronectin diluted in PBS (50 μl/well) at 4° C. overnight. After the coating solution was removed, the plates were blocked with 300 μl/well of 1% BSA/TBS at 25° C. for 1 hr. The plate was washed with wash buffer (0.05% Tween-20 in TBS containing 1 mM CaCl₂ and 1 mM MgCl₂), and dilutions of humanized antibodies mixed with 1 nM soluble αvβ5 protein in TBS containing 1% BSA, 1 mM CaCl₂ and 1 mM MgCl₂ were added (50 μl/well) and incubated at 25° C. for 1 hr. The plate was washed 4 times with wash buffer in an automated plate washer and incubated sequentially with 50 μl/well of the anti-beta5 monoclonal antibody 15F11 (at 0.5 ug/mL) in for 1 hr at 25° C. in TBS containing 1% BSA, 1 mM CaCl₂ and 1 mM MgCl₂. After washing the plate 4 times with wash buffer, 100 μl/well of a 1:5000 dilution of a peroxidase-conjugated goat anti-mouse antibody in TBS containing 1% BSA, 1 mM CaCl₂ and 1 mM MgCl₂ were added and incubated for 1 hr at 25° C. Bound protein was detected using the TMB substrate and indicated by the absorbency measured at 450 nm.
In parallel, the humanized ALULA antibodies were tested in two adhesion assays. One measured the ability of each antibody to inhibit the binding of soluble αvβ5 to purified human plasma vitronectin. In the other assay, the murine BaF3 cell line was stably transfected with human αv and β5 subunits, and the adhesion of these cells to vitronectin was determined using a fluorescence endpoint.

[3] = target: T2, human soluble αvβ5 protein …; experiment: ELISA, biotin-αvβ5 on streptavidin plate, unpurified antibody
Protocol: Solid-Phase αvβ5 Binding Assay (ELISA): A 96-well microtiter plate was precoated with streptavidin (Thermo Scientific Reacti-Bind StreptAvidin Coated High Binding Capacity plate) was used. Biotinylated soluble αvβ5 protein (2 μg/mL) in TBS with 1% BSA was added to the wells, and the plate was incubated for 1 hr at 25° C. The plate was washed with wash buffer (0.05% Tween-20 in PBS), and purified humanized ALULA antibody in TBS containing 1% BSA, 1 mM CaCl2, and 1 mM MgCl2 were added (50 μl/well). The plate was incubated for 1 hr at 25° C., washed, and then incubated for 1 hr with 50 μl/well of […] goat anti-human secondary antibody. Bound antibody was detected using 3,3′,5,5′-tetramethylbenzidine (TMB). Binding was indicated by the absorbency measured at 450 nm.
(§1) Screening of all combinations of heavy chain versions VH0, VH1, VH2, VH3, VH4, or VH5, with light chains VL0, VL1, VL2, or VL3 was carried out using unpurified proteins in conditioned cell media. The binding of each construct to biotin-conjugated human αvβ5 protein was determined using a solid-phase binding assay (ELISA) and by FACS, and the ability of each construct to block ligand binding was determined using a vitronectin cell adhesion assay (Table 1).

[4] = target: T1, human αvβ5 expressed on BaF3 cells …; experiment: cell-based or functional assay; remark: listed apart in the source
[5] = target: T1, human αvβ5 expressed on BaF3 cells …; experiment: FACS on αvβ5-BaF3 cells, unpurified antibody
Protocol: FACS Binding Assay: Cells were washed one time in PBS, and then resuspended in FACS buffer (1×PBS, 1% BSA, 1 mM CaCl₂, and 1 mM MgCl₂). 1×10⁶ cells were then incubated on ice for 1 hr in FACS buffer containing the test antibody in a total volume of 50 μl. After incubation, the cells were washed two times with ice cold FACS buffer, resuspended in 50 μl of FACS buffer containing 3 μg/ml goat anti-mouse IgG AlexaFluor488 (Jackson ImmunoResearch), and incubated on ice for 30 min. The cells were then washed twice with ice cold FACS buffer and fixed in 1% PFA overnight. Cell aggregates were removed by filtering through 40 μm filter plates (Millipore) and binding of the labeled secondary antibody was monitored by flow cytometry using a FACS Calibur (BD Biosciences).
as §1

[6] = target: T2, human soluble αvβ5 protein …; experiment: competition ELISA against 1 nM murine ALULA on coated soluble human αvβ5
Protocol: Competition ELISA: A 96-well microtiter plate was coated with 50 μl/well of 5 μg/mL soluble human αvβ5 protein at 4° C. overnight. The plate was washed with wash buffer (0.05% Tween-20 in PBS) four times in an automated plate washer. 300 μl/well of 1% BSA in PBS was added and incubated for 1 hr at 25° C. to block nonspecific binding. The plate was washed as above, and dilutions of humanized antibodies mixed with 1 nM murine ALULA in PBS containing 1% BSA, were added (50 μl/well). The plate was incubated for 1 hr at 25° C., washed, and then incubated for 40 minutes with 100 μl/well of […] goat anti-mouse antibody. Bound antibody was detected using 3,3′,5,5′-tetramethylbenzidine (TMB). Binding was indicated by the absorbency measured at 450 nm.
The binding of each construct to soluble, purified human αvβ5 protein was determined by a competition ELISA with murine ALULA (FIG. 4). […] The remaining constructs behaved similarly, with version H4/L2 showing the lowest IC50 value in this assay.

T1 sequence (P06756 31-1048 limits assumed, chain 1 of 2): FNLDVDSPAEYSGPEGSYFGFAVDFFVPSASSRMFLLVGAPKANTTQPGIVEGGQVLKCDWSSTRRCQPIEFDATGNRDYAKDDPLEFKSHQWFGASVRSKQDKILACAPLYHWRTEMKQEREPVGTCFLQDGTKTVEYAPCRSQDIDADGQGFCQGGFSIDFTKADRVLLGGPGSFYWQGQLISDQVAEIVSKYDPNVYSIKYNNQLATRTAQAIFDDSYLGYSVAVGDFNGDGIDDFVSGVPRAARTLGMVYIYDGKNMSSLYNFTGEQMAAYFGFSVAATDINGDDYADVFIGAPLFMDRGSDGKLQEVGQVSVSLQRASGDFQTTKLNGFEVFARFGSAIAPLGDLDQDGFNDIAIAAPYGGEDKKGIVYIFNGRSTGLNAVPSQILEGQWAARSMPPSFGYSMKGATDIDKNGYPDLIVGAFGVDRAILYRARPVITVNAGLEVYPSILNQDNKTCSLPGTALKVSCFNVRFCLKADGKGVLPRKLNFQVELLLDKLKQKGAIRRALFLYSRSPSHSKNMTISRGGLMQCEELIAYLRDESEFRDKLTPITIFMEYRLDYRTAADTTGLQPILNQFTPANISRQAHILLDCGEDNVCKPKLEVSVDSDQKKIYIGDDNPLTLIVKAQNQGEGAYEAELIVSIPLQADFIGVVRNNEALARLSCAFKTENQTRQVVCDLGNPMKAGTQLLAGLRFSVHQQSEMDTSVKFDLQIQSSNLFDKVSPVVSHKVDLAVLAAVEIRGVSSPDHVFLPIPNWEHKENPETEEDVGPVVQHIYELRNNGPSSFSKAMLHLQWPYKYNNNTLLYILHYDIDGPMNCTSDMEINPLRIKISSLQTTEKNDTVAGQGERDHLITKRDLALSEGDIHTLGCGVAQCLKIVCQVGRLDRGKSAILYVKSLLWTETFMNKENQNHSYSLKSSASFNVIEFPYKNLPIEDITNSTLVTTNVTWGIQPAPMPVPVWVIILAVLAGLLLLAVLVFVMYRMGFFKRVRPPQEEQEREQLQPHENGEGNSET
T1 sequence (P18084 24-799 limits assumed, chain 2 of 2): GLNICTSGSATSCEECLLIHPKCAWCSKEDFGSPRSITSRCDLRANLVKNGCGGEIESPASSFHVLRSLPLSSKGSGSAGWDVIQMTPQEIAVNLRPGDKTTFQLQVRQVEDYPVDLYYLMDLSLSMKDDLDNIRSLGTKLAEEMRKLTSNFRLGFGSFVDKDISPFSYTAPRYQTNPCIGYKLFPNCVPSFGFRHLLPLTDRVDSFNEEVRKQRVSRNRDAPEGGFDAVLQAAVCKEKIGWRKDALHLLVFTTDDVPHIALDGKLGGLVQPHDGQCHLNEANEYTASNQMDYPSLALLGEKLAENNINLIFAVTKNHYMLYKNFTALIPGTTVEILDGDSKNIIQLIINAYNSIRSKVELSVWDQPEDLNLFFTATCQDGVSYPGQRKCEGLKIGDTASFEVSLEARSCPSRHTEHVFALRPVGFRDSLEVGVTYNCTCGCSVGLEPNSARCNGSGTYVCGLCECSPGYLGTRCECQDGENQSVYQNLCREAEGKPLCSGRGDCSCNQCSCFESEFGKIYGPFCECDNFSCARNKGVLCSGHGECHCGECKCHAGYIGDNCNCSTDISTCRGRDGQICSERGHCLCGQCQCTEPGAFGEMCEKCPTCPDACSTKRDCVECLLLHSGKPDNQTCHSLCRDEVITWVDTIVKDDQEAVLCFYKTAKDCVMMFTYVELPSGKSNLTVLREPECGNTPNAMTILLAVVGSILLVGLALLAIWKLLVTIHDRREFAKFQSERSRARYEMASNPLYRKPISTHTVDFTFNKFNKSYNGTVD

Binder | VN adhesion inhibition, αvβ5-BaF3 (IC50, nM) [1] [nM] | IC50 [2] [nM] | EC50 [3] [nM] | VN adhesion inhibition, αvβ5-BaF3 (IC50, nM) [4] [nM] | EC50 [5] [nM] | IC50 [6] [nM]
VH0/VL0 Agly-hIgG1(T299A) (antibody, V domains shown, also called H0/L0) VH: EVQLVESGGGLVKPGGSLRLSCAASGYTFTSYWMHWVRQAPGKGLEWVGAIYPGNSDTSYNQKFKGRFTISRDDSKNTLYLQMNSLKTEDTAVYYCTTTTYGYDWFAYWGQGTLVTVSS VL: DIQMTQSPSSVSASVGDRVTITCKSSQSVLYSSNQKNYLAWYQQKPGKAPKLLIYWASTRESGVPSRFSGSGSGTDFTLTISSLQPEDFATYYCHQYLSSLTFGQGTKVEIK | 3 | 11.1 | 1.2 | 1770 | 1120 | 18.3
VH4/VL1 Agly-hIgG1(T299A) (antibody, V domains shown, also called H4/L1) VH: EVQVVQSGGGLVKPGESLRLSCKASGYTFTSYWMHWVKQAPGKGLEWVGAIYPGNSDTSYNQKFKGKFTISADTSPNTAYLQMNSLKTEDTAVYYCTTTTYGYDWFAYWGQGTLVTVSS VL: DIQMTQSPSSLSASVGDRVTMTCKSSQSVLYSSNQKNYLAWYQQKPGKAPKLLIYWASTRESGVPDRFSGSGSGTDFTLTISSLQPEDFATYYCHQYLSSLTFGQGTKLEIK | 1 | 0.9 | 0.4 | 59.8 | 126 | 2.2
VH0/VL1 Agly-hIgG1(T299A) (antibody, V domains shown, also called H0/L1) VH: EVQLVESGGGLVKPGGSLRLSCAASGYTFTSYWMHWVRQAPGKGLEWVGAIYPGNSDTSYNQKFKGRFTISRDDSKNTLYLQMNSLKTEDTAVYYCTTTTYGYDWFAYWGQGTLVTVSS VL: DIQMTQSPSSLSASVGDRVTMTCKSSQSVLYSSNQKNYLAWYQQKPGKAPKLLIYWASTRESGVPDRFSGSGSGTDFTLTISSLQPEDFATYYCHQYLSSLTFGQGTKLEIK | 2.2 | 11.9 | 1.3 | 1620 | 798 | 14.2
VH2/VL0 Agly-hIgG1(T299A) (antibody, V domains shown, also called H2/L0) VH: EVQVVQSGGGLVKPGESLRLSCAASGYTFTSYWMHWVKQAPGKGLEWVGAIYPGNSDTSYNQKFKGKFTISADTSSNTAYLQMNSLKTEDTAVYYCTTTTYGYDWFAYWGQGTLVTVSS VL: DIQMTQSPSSVSASVGDRVTITCKSSQSVLYSSNQKNYLAWYQQKPGKAPKLLIYWASTRESGVPSRFSGSGSGTDFTLTISSLQPEDFATYYCHQYLSSLTFGQGTKVEIK | 1.3 | 2.4 | 0.5 | 476 | 354 | 3.4
VH2/VL2 Agly-hIgG1(T299A) (antibody, V domains shown, also called H2/L2 (Agly-IgG1)) VH: EVQVVQSGGGLVKPGESLRLSCAASGYTFTSYWMHWVKQAPGKGLEWVGAIYPGNSDTSYNQKFKGKFTISADTSSNTAYLQMNSLKTEDTAVYYCTTTTYGYDWFAYWGQGTLVTVSS VL: NIQMTQSPSSLSASVGDRVTMSCKSSQSVLYSSNQKNYLAWYQQKPGKSPKLLIYWASTRESGVPDRFTGSGSGTDFTLTISSLQPEDFATYYCHQYLSSLTFGQGTKLEIK | 0.4 | 1.1 | 0.7 | 292 | 646 | 2.8
VH3/VL2 Agly-hIgG1(T299A) (antibody, V domains shown, also called H3/L2) VH: EVQVVESGGGLVKPGGSLRLSCKASGYTFTSYWMHWVKQAPGKGLEWVGAIYPGNSDTSYNQKFKGKFTLSAVTSSNTAYLQMNSLKTEDTAVYYCTTTTYGYDWFAYWGQGTLVTVSS VL: NIQMTQSPSSLSASVGDRVTMSCKSSQSVLYSSNQKNYLAWYQQKPGKSPKLLIYWASTRESGVPDRFTGSGSGTDFTLTISSLQPEDFATYYCHQYLSSLTFGQGTKLEIK | 0.6 | 2.5 | 0.7 | 124 | 3310 | 3.3
VH4/VL0 Agly-hIgG1(T299A) (antibody, V domains shown, also called H4/L0 (Agly-IgG1)) VH: EVQVVQSGGGLVKPGESLRLSCKASGYTFTSYWMHWVKQAPGKGLEWVGAIYPGNSDTSYNQKFKGKFTISADTSPNTAYLQMNSLKTEDTAVYYCTTTTYGYDWFAYWGQGTLVTVSS VL: DIQMTQSPSSVSASVGDRVTITCKSSQSVLYSSNQKNYLAWYQQKPGKAPKLLIYWASTRESGVPSRFSGSGSGTDFTLTISSLQPEDFATYYCHQYLSSLTFGQGTKVEIK | 1.1 | 1.7 | 0.3 | 74.9 | 158 | 2
VH4/VL2 Agly-hIgG1(T299A) (antibody, V domains shown, also called H4/L2 (Agly-IgG1)) VH: EVQVVQSGGGLVKPGESLRLSCKASGYTFTSYWMHWVKQAPGKGLEWVGAIYPGNSDTSYNQKFKGKFTISADTSPNTAYLQMNSLKTEDTAVYYCTTTTYGYDWFAYWGQGTLVTVSS VL: NIQMTQSPSSLSASVGDRVTMSCKSSQSVLYSSNQKNYLAWYQQKPGKSPKLLIYWASTRESGVPDRFTGSGSGTDFTLTISSLQPEDFATYYCHQYLSSLTFGQGTKLEIK | 0.5 | 0.6 | 0.4 | 71.8 | 156 | 1.6
VH5/VL0 Agly-hIgG1(T299A) (antibody, V domains shown, also called H5/L0) VH: EVQVQQSGGGLVKPGGSLRLSCKASGYTFTSYWMHWVKQAPGKGLEWVGAIYPGNSDTSYNQKFKGKATLSAVTSPNTAYLQMNSLKTEDTAVYYCTTTTYGYDWFAYWGQGTLVTVSS VL: DIQMTQSPSSVSASVGDRVTITCKSSQSVLYSSNQKNYLAWYQQKPGKAPKLLIYWASTRESGVPSRFSGSGSGTDFTLTISSLQPEDFATYYCHQYLSSLTFGQGTKVEIK | 1 | 3.1 | 0.4 | 218 | 244 | 2.8
